Assay [1] has as its system soybean cyst nematode (SCN, Heterodera glycines). As to the kind of experiment: Soybean cyst nematode reproduction on soybean after seed treatment, controlled environment (cysts per gram of root tissue or per plant). The assay is classed as in vivo. Conditions: for % Comparison to Control (figure in parentheses): change vs base control.
Assay [2] relates to Fall armyworm (Spodoptera frugiperda). Description: Diet-surface overlay (DSO) bioassay on Fall armyworm. The assay is classed as in vivo. As to the method: (§1) Diet-surface overlay bioassays are conducted with artificial diet mixes without antibiotics in 1.5 cm^2 cell bioassay trays(s). Artificial diets are commercially available from Southland Products Inc. Diets were prepared by dispersing 0.5 mL of molten diet to each 1.5 cm^2 cell. After solidification, 0.1 mL enzyme treatments were dispersed on top of diet in each cell and the tray was gently rocked in an orbital shaker to spread the liquid uniformly over the diet surface. Trays were placed under clean airflow until the surface of each cell was uniformly dried. One or two 16-cell sections were used per treatment (the number in larvae treated was 16 or 32).
(§2) One healthy first instar larva was placed into each treatment cell, each 16-cell section was covered with a re-sealable lid and incubated at 27° C. and light-dark period of 16:8 hrs. After 7 days, and according to the species, the number of individuals in the following developmental categories was recorded.
(§3) Negative/untreated controls were treated with filtered water and positive controls were treated with lethal doses of Bacillus thuringiensis subsp. Kurstaki (Btk) spores at 1000 ppm.

For assay [3], the system named is Btk resistant Diamondback moth. As to the kind of experiment: Diet-surface overlay (DSO) bioassay on Btk resistant Diamondback moth. The assay is classed as in vivo, Plutella xylostella. Conditions: number of individuals, n = 32, 7 days. As to the method: as §1, §2
Diamondback moth (Plutella xylostella): Dead Larva (lack of movement), Larva Stage I (≤50% relative size), Larva Stage II (100% relative size, full size), Early Pupa (light green color), Late Pupa (light-dark brown color), and Adult.
as §3
However, both neutral proteases reduced the number of individuals reaching adult stage.
The effect of lipase (10× enzyme rate) and free lipases were tested on a Diamondback Moth Btk resistant strain. Free Lipases from Burkholderia cepacia (Bc) and Pseudomonas fluorescens (Pf) were tested along with Lipase (SEQ ID NO: 76) and the results are shown below in Table 45.

The mark [4] stands for this setting: Table 50, esterases, Fall armyworm, number of individuals of n = 32.
The mark [5] stands for this setting: Table 50, esterases, Fall armyworm, number of individuals of n = 32, DSO bioassay, dose per treatment in U/mL Diet.
[6] abbreviates: Table 48, chitinases, Fall armyworm, number of individuals of n = 32, DSO bioassay.
Where [7] appears, read: Table 46, number of individuals, n = 32, 7 days.

B1: Chitinase C (SEQ ID NO: 249): Chitinase C (protein, listed as Bacillus thuringiensis)
chain: DSPKQSQKIVGYFPSWGVYGRNYQVADIDASKLTHLNYAFADICWKGKHGNPSTHPDNPNKQTWNCKESGVPLQNKEVPNGTLVLGEPWADVTKSYPGSGTTWEDCDKYARCGNFGELKRLKAKYPHLKTIISVGGWTWSNRFSDMAADEKTRKVFAESTVAFLRAYGFDGVDLDWEYPGVETIPGGSYRPEDKQNFTLLLQDVRNALNKAGAEDGKQYLLTIASGASQRYADHTELKKISQILDWINIMTYDFHGGWEATSNHNAALYKDPNDPAANTNFYVDGAIDVYTNEGVPVDKLVLGVPFYGRGWKSCGKENNGQYQPCKPGSDGKLASKGTWDDYSTGDTGVYDYGDLTANYVNKNGFVRYWNDTAKVPYLYNATTGTFISYDDNESMKYKTDYIKTKGLSGAMFWELSGDCRTSPKYSCSGPKLLDTLVKELLGGPINQKDTEPPTNVKNIIVTNKTSSSVQLSWTASTDNVGVTEYEITAGEEKWSATTNSITIKNLKPNTEYTFSVIAKDASGNKSHPTALTVKTDEANTTPPDGNGTATFSVTSNWGSGYNFSIIIKNNGTIPIKNWKLEFDYSGNLTQVWDSKISSKTNNHYVITNAGWNGEIPPGGSITIGGAGTGNPAELLNAVISEN
Regarding B1, the “% Comparison to Control (figure in parentheses)” value (shortened to “% Comparison to Control”) in assay [1] (Table 18) is −22%. For the same molecule, the “Average cysts per g of root tissue” value in assay [1] (Table 18, free enzyme seed treatment) is on record as 45.7 cysts per g of root tissue.

B2: Pseudomonas sp. esterase free enzyme concentrate (SEQ ID NO: 248): free enzyme concentrated in an Amicon Ultra 4K filter unit, 4× volumetric concentration (protein, listed as Pseudomonas sp.)
chain: MTEPLILQPVKPADACVIWLHGLGADRYDFLPVAEALQEILLSTRFVLPQAPTRPVTINGGYAMPSWYDIKAMSPARAIDRDELEASADRIIELIEEQRSSGIDASRIFLAGFSQGGAVVYHTAFLKWQGPLGGVLALSTYAPTFSDELELSASQQRIPVLSLHGQFDNVVQNSMGRTAYEYLKAHGVTVTWQEYPMEHEVLPEEIRDIGTWLSERLR
modifications: concentrated
notes: free enzyme concentrated in an Amicon Ultra 4K filter unit, 4× volumetric concentration
With B2, the “% Comparison to Control” value in assay [1] (Table 16) is −25%. Besides, the “Average cysts per g of root tissue” value in assay [1] (Table 16, free enzyme or 4x concentrate seed treatment, soybean 2830E3) is listed as 182.1 cysts per g of root tissue.

B3: Trypsin-like protease (SEQ ID NO: 126): Trichoderma lixii trypsin-like protease (protein, listed as Trichoderma lixii)
chain: AAITPRGSDIVGGTTAALGEFPYIVSLSTGGSHFCGGVLIDSRTVVTAGHCTIDQRASSVKVRAGTLTWASGGTQVGVSSLTLHPSYTVDSQGVPDNDVGVWHLATAIPTSSTIGYATLPASGSDPAAGTTLTVAGWGTTSENSNSLPSTLRKVSVPVVARATCDSDYDGEISNNMFCAAVAAGGKDSCSGDSGGPIIDPSGTLVGVVSWGQGCAERGFPGVYTRLGNYVSFINSNRG
modifications: H182 trypsin-like protease
For the molecule B3, the “Average cysts per g of root tissue” value in assay [1] (Table 11, free enzyme seed treatment 2 fl. oz. per unit of seed (ILEVO 0.15 mg active ingredient per seed), soybean P18A98X, 3 weeks after inoculation) is listed as 18.6 cysts per g of root tissue.

B4: Bacillus thuringiensis Lipase 1 (SEQ ID NO: 250): Bacillus thuringiensis Lipase 1 (protein, listed as Bacillus thuringiensis)
chain: YGFVSGVNDVLNPKASNLIKKTDVVAKEKKKTGTLQIVSLGDSLTRGVGDKEGIGYVGRMKEDLQKDYKQKIALTNLAVSGAKMPDLLKQIESNGAQYSIKQADVIVLTIGGNDLFPGWESLGKIDLETYRPDTETFQNEAKKIIEEIRKLNTDSPIFWLGLYNPFEDVEDLKGSSNIVVDWNASLEKLALNDKNVYITPTFDLFQNRGKDLLYSDHFHPNEVGYTYMAERLVQNVVSKLKLEQGGVK
B4: the “% Comparison to Control” value in assay [1] (Table 19) is reported as −25%. Further, the “Average cysts per g of root tissue” value in assay [1] (Table 19, free enzyme seed treatment, soybean 2830E3) is reported as 332.0 cysts per g of root tissue.

B5: H6-pnbA (SEQ ID NO: 94): recombinant six-histidine tagged esterase pnbA from Bacillus subtilis (protein, listed as Bacillus subtilis)
chain: MTHQIVTTQYGKVKGTTENGVHKWKGIPYAKPPVGQWRFKAPEPPEVWEDVLDATAYGSICPQPSDLLSLSYTELPRQSEDCLYVNVFAPDTPSKNLPVMVWIHGGAFYLGAGSEPLYDGSKLAAQGEVIVVTLNYRLGPFGFLHLSSFNEAYSDNLGLLDQAAALKWVRENISAFGGDPDNVTVFGESAGGMSIAALLAMPAAKGLFQKAIMESGASRTMTKEQAASTSAAFLQVLGINEGQLDKLHTVSAEDLLKAADQLRIAEKENIFQLFFQPALDPKTLPEEPEKAIAEGAASGIPLLIGTTRDEGYLFFTPDSDVHSQETLDAALEYLLGKPLAEKVADLYPRSLESQIHMMTDLLFWRPAVAYASAQSHYAPVWMYRFDWHPKKPPYNKAFHALELPFVFGNLDGLERMAKAEITDEVKQLSHTIQSAWITFAKTGNPSTEAVNWPAYHEETRETLILDSEITIENDPESEKRQKLFPSKGE
modifications: Esterase (pnbA)
On to B5, for which, in assay [2] (setting [4]), the “Larva Stage I” value came to 0, the “Larva Stage II” value stood at 0, the “Larva Stage III” value stood at 15 and the “Larva Stage IV” value was found to be 17. In assay [2] (setting [5]), the “Dead Larva” value is reported as 0.

B6: Chitinase (SEQ ID NO: 185): recombinant chitinase from Akanthomyces lecanii; Acidic Chitinase 1 (Chit1) (protein, listed as Akanthomyces lecanii)
chain: MAKCTSPDRKCPAPLIDAPINSFMTDGWADTDIHWEGDSWNDSGTNIYGCLKQLNILKKHNRNFKVLLSIGGWTYSSNFPAPASTPEGRDTFAKSCVELVKNLGFDGIDIDWEYPKTAEEAGHFVELLAEVRKQLDEYSARAANNYHFELSVACPAGPDNFQKLNISGMDAYLDFWNLMAYDYAGSWDKNSGHQANLYPCKDAPGCTPFSTVAAVDYYTSNGVSPDKLVLGMPLYGRAFENCDGIGQPFQGVGQGTWEQGVYDYKKLPLEGAEEHKDDDSCATYCHNAESRTLVTYDTPELAKTKADFIKERGLGGGMWWESSADKAGDDSLIQVVVSELGGPEALKQQQNCISYPETKYDNLRDGLPDN
modifications: Acidic Chitinase 1 (Chit1-H195)
In the case of B6, in assay [3] (Table 47, chitinases, rate in mU/mL diet column), the “Dead Larva” value was 2. In assay [3] (Table 47), the Adult worked out at 1, the “Early Pupa” value is 8, the “Larva Stage I” value is recorded as 2 and the “Larva Stage II” value is reported as 2. Also, the “Late Pupa” value in assay [3] (Table 47) was 17. In assay [2] (setting [6]), the “Larva Stage I” value worked out at 4, the “Larva Stage II” value is 5, the “Larva Stage III” value came out at 8 and the “Larva Stage IV” value came to 8. The “Dead Larva” value in assay [2] (Table 48, chitinases, Fall armyworm, number of individuals of n = 32, DSO bioassay, dose per treatment in mU/mL Diet) is 7.

B7: Lipase: lipase of Table 46, not further identified; probably Lipase (SEQ ID NO: 76) (protein, listed as Bacillus thuringiensis)
chain: MRLMRRCVALLIVFFIMAPMISTNVRAGVVKELKTGFPDQEVFTPGEWFLGQKPANYDENKPPILFVQGRNGNADSWYGKTVYHDINDMYDYALKAGYQTVFIQLYDAAGKGSASQWDNGKLLAQKLEEIYNHFGKKVNIVAHSKGGIDTQAALVGYGANRFVGNVITLATPHHGSNLADLSYSWWAGWLASILGQKDDGTYSLQMGEMAKFRSTIDNNPAAKLNRYYTVTGTSWGPVFSALSMGGLYLSSYGSNDGLVNECSAKLPYGTHLFTDSRFDHDNIRKGSAVFARIEPYLRTANVPVPALVASSTSSNENIEQLNTTSNQSILGGELPQNQWIEQTVAVDKKAEGIVSILTASSDVEVQMISPKGKVYTNKDSVITTGEGESFFGGATIRTFKFDKMDVGEWKVKMMTKQSKDAYLVVSDYKTGAPFVLQMPTKVKANKSEYKLKKSPVAPEMKGDLSITVRVVNKEGKLVSEFNELQNVNNNTFTGALKNIKQPGVYNVTMDIKGMNKEGKSYSRTIVKSVYVEK
modifications: Lipase (Lip1 H192)
For the molecule B7, the “Dead Larva” value in assay [2] (Table 46, lipases, number of individuals, n = 32, 7 days) was found to be 5. Moreover, in assay [2] (setting [7]), the “Larva Stage I” value worked out at 2, the “Larva Stage II” value is listed as 10, the “Larva Stage III” value was 15 and the “Larva Stage IV” value stood at 0.

B8: H6-pytH (SEQ ID NO: 95): recombinant six-histidine tagged esterase pytH from Sphingobium wenxiniae (protein, listed as Sphingobium wenxiniae)
chain: MTVTDIILIHGALNRGACYDAVVPLLEARGYRVHAPDLTGHTPGDGGHLSVVDMEHYTRPVADILARAEGQSILLGHSLGGASISWLAQHHPDKVAGLIYLTAVLTAPGITPETFVLPGEPNRGTPHALDLIQPVDEGRGLQADFSRLERLREVFMGDYPGEGMPPAEQFIQTQSTVPFGTPNPMEGRALEIPRLYIEALDDVVIPIAVQRQMQKEFPGPVAVVSLPASHAPYYSMPERLAEAIADFADAPAEYRQTATKAGPDRPAGADGGRADRADLP
modifications: Esterase (pytH)
On to B8, for which, in assay [2] (setting [4]), the “Larva Stage I” value is listed as 0, the “Larva Stage II” value is listed as 0, the “Larva Stage III” value was found to be 13 and the “Larva Stage IV” value is 19. In addition, the “Dead Larva” value in assay [2] (setting [5]) worked out at 0.

These data come from patent publication US20260231954A1, “PESTICIDAL ENZYMES FOR USE ON NEMATODES, INSECTS, AND MOLLUSKS” (priority 2023, published 2026).
